Laboratory results from PMC6405950, “Structure-function relationship of a citrus salicylate methylesterase and role of salicylic acid in citrus canker resistance” (Scientific Reports, 2019).
Where a chain is given by its changes, count along the chain named. Names may count otherwise.

Experiments:
CsMES1 V18A = molecular target: T1, CsMES1 V18A (Citrus sinensis, UniProt A0A067GV78, V18A); assay: biochemical; format: binding
T1 construct: gene CISIN_1g024065mg; recombinant CsMES1 (KDO79352) from pET28a in E. coli
T1 sequence (A0A067GV78 1-267 V18A): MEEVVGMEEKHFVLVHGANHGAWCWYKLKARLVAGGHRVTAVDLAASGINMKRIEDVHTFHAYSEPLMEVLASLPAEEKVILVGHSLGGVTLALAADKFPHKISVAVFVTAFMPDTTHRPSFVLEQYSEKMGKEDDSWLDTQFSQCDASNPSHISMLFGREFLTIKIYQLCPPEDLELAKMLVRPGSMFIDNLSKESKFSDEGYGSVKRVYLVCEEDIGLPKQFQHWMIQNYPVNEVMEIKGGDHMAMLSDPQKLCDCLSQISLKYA

CsMES1 = molecular target: T2, CsMES1 (Citrus sinensis, UniProt A0A067GV78); assay: ITC; also esterase inhibition (IC50 […] at […] MeSA); format: binding
T2 construct: gene CISIN_1g024065mg; recombinant CsMES1 (KDO79352) from pET28a in E. coli
T2 sequence (A0A067GV78 1-267): T1 sequence (A0A067GV78 1-267 V18A) with A18V

CsMES1 V18S = molecular target: T3, CsMES1 V18S (Citrus sinensis, UniProt A0A067GV78, V18S); assay: biochemical; format: binding
T3 construct: gene CISIN_1g024065mg; optimized CsMES1 V18S synthetic gene in pET28a, recombinant from E. coli
T3 sequence (A0A067GV78 1-267 V18S): T1 sequence (A0A067GV78 1-267 V18A) with A18S

[1] = molecular target: Citrus sinensis salicylate methylesterase CsMES1 (recombinant, wild type) (Citrus sinensis); assay: SEC; analytical gel filtration on Superdex 75 10/300 in SEC buffer (137 mM NaCl, 10 mM Na2HPO4, 2.7 mM KCl, 2 mM KH2PO4, pH 7.5); mass estimated from standards (bovine serum albumin, ovalbumin, lysozyme)
[2] = substrate: COC(=O)c1ccccc1O; assay: MeSA esterase kinetics, SA fluorescence (Km); format: biochemical, Citrus sinensis; details: active site

Question: How did the Kd (CsMES1 V18A) turn out when `O=C(c1ccccc1)C(F)(F)F` [TriFA, 2,2,2-Trifluoroacetophenone] was run?
Answer: The Kd was roughly 300 nM.

Question: What about the Kd (CsMES1) of the same molecule?
Answer: Its Kd is 7100 nM.

Question: And the Kd (CsMES1 V18S)?
Answer: Its Kd is roughly 300 nM.

Question: For “Citrus sinensis salicylate methylesterase CsMES1 (recombinant, wild type) (enzyme)”, which stoichiometry N [1] is on record?
Answer: Its stoichiometry N is 2.

B1: CsMES1 (Citrus sinensis) (protein)
chain: T1 sequence (A0A067GV78 1-267 V18A) with A18V
notes: recombinant CsMES1 (KDO79352) from pET28a in E. coli
Question: Which results are given for B1?
Answer: Km [2]: 48.9 ± 15.63 µM; kcat [2]: 0.38 ± 0.06 s⁻¹

B2: CsMES1 V18A (Citrus sinensis; V18A) (protein)
chain: T1 sequence (A0A067GV78 1-267 V18A)
notes: as for B1
Question: Which Km [2] does the source give for B2 here?
Answer: Its Km is 11.7 ± 0.97 µM.

B3: CsMES1 V18S (Citrus sinensis; V18S) (protein)
chain: T1 sequence (A0A067GV78 1-267 V18A) with A18S
notes: optimized CsMES1 V18S synthetic gene in pET28a, recombinant from E. coli
Question: For B3, which Km [2] is on record?
Answer: The Km was 16.1 ± 0.23 µM.
